This is an account of results in article PMC4786922, “Protein Delivery of an Artificial Transcription Factor Restores Widespread Ube3a Expression in an Angelman Syndrome Mouse Brain”.

The data set addresses TAT-S1 (MBP-TAT-mCherry-HA-NLS-S1-KRAB) (artificial (designed)). In words: EMSA; EMSA: ZBA buffer (composition not given), 0.05% NP-40, 0.1 mg/ml BSA, 10% glycerol, 35-75 pM target, 1.5 h at room temperature; pH not given. As to conditions: protein: recombinant, tags: N-terminal MBP, TAT(48-57), SV40 NLS, C-terminal KRAB, label: 5'-biotin on strand 1, blunt. In general terms: A gel shift assay detects complexes by their altered migration in electrophoresis.

B1: S1 target site EMSA probe (dsDNA)
DNA 1: CCTCTTCGCTATTACGCCAGCCATGCGTAGGGAGCCGCGGAACGTTCGATCGTACTCGAGTCAGGGTG
DNA 2: CACCCTGACTCGAGTACGATCGAACGTTCCGCGGCTCCCTACGCATGGCTGGCGTAATAGCGAAGAGG
For the molecule B1, the Kd – broadly, the free concentration of one partner at which half of the binding sites on the other are occupied at equilibrium, for simple one-to-one binding – was found to be 8 ± 1.5 nM.
